According to patent publication US20180355012A1:

How the values were obtained:
[1] = molecular target: HLA-A2/… pMHC complex (NY-ESO-1 tumor specific antigen); assay: BLI (forteBIO Oke), biotinylated pMHC on SA sensor, soluble TCR in solution, 1:1 fit
[2] = molecular target: HLA-B4405: … pMHC complex
[3] = molecular target: HLA-A1: … pMHC complex (MageA3 tumor specific antigen); assay: BLI (forteBIO Oke), biotinylated pMHC on SA sensor, soluble TCR in solution, 1:1 fit

Substance	Kd [3] [µM]	other results
1G4 TCR with an artificial interchain disulfide bond between position 53 of TRAC*01 exon 1 and position 54 of TRBC1*01 or TRBC2*01 exon 1		Kd [1]: 6.96 µM
LC13 TCR with an artificial interchain disulfide bond between position 10 of TRAC*01 exon 1 and posi		Kd [2]: 10 µM
MGA3 TCR with an artificial interchain disulfide bond between position 10 of TRAC*01 exon 1 and position 20 of TRBC1*01 or TRBC2*01 exon 1	3.45	

Further lines, with some results ahead:

Kd [3] [µM]	Substance	other results
1.42	MGA3 TCR with an artificial interchain disulfide bond between position 53 of TRAC*01 exon 1 and position 54 of TRBC1*01 or TRBC2*01 exon 1	
2.04	MGA3 TCR with an artificial interchain disulfide bond between position 89 of TRAC*01 exon 1 and position 19 of TRBC1*01 or TRBC2*01 exon 1	
